From patent US7374920B2, “Ginkgo biloba levopimaradiene synthase” (priority 2001, dated 2008)
Entries after “also recorded” stand apart in the source; their conditions may differ.

B1: Ala^2 (protein, listed as Ginkgo biloba)
chain: MAGVLFANLPCSLQLSPKVPFRQSTNILIPFHKRSSFGFNAQHCVRSHLRLRWNCVGIHASAAETRPDQLPQEERFVSRLNADYHPAVWKDDFIDSLTSPNSHATSKSSVDETINKRIQTLVKEIQCMFQSMGDGETNPSAYDTAWVARIPSIDGSGAPQFPQTLQWILNNQLPDGSWGEECIFLAYDRVLNTLACLLTLKIWNKGDIQVQKGVEFVRKHMEEMKDEADNHRPSGFEVVFPAMLDEAKSLGLDLPYHLPFISQIHQKRQKKLQKIPLNVLHNHQTALLYSLEGLQDVVDWQEITNLQSRDGSFLSSPASTACVFMHTQNKRCLHFLNFVLSKFGDYVPCHYPLDLFERLWAVDTVERLGIDRYFKKEIKESLDYVYRYWDAERGVGWARCNPIPDVDDTAMGLRILRLHGYNVSSDVLENFRDEKGDFFCFAGQTQIGVTDNLNLYRCSQVCFPGEKIMEEAKTFTTNHLQNALAKNNAFDKWAVKKDLPGEVEYAIKYPWHRSMPRLEARSYIEQFGSNDVWLGKTVYKMLYVSNEKYLELAKLDFNMVQALHQKETQHIVSWWRESGFNDLTFTRQRPVEMYFSVAVSMFEPEFAACRIAYAKTSCLAVILDDLYDTHGSLDDLKLFSEAVRRWDISVLDSVRDNQLKVCFLGLYNTVNGFGKDGLKEQGRDVLGYLRKVWEGLLASYTKEAEWSAAKYVPTFNEYVENAKVSIALATVVLNSIFFTGELLPDYILQQVDLRSKFLHLVSLTGRLINDTKTYQAERNRGELVSSVQCYMRENPECTEEEALSHVYGIIDNALKELNWELANPASNAPLCVRRLLFNTARVMQLFYMYRDGFGISDKEMKDHVSRTLFDPVA
B2: Ser^61: Ginkgo biloba levopimaradiene synthase truncated at Ala^60-Ser^61; amino acid sequence SEQ.ID.NO:35 (protein, listed as Ginkgo biloba)
chain: MSAAETRPDQLPQEERFVSRLNADYHPAVWKDDFIDSLTSPNSHATSKSSVDETINKRIQTLVKEIQCMFQSMGDGETNPSAYDTAWVARIPSIDGSGAPQFPQTLQWILNNQLPDGSWGEECIFLAYDRVLNTLACLLTLKIWNKGDIQVQKGVEFVRKHMEEMKDEADNHRPSGFEVVFPAMLDEAKSLGLDLPYHLPFISQIHQKRQKKLQKIPLNVLHNHQTALLYSLEGLQDVVDWQEITNLQSRDGSFLSSPASTACVFMHTQNKRCLHFLNFVLSKFGDYVPCHYPLDLFERLWAVDTVERLGIDRYFKKEIKESLDYVYRYWDAERGVGWARCNPIPDVDDTAMGLRILRLHGYNVSSDVLENFRDEKGDFFCFAGQTQIGVTDNLNLYRCSQVCFPGEKIMEEAKTFTTNHLQNALAKNNAFDKWAVKKDLPGEVEYAIKYPWHRSMPRLEARSYIEQFGSNDVWLGKTVYKMLYVSNEKYLELAKLDFNMVQALHQKETQHIVSWWRESGFNDLTFTRQRPVEMYFSVAVSMFEPEFAACRIAYAKTSCLAVILDDLYDTHGSLDDLKLFSEAVRRWDISVLDSVRDNQLKVCFLGLYNTVNGFGKDGLKEQGRDVLGYLRKVWEGLLASYTKEAEWSAAKYVPTFNEYVENAKVSIALATVVLNSIFFTGELLPDYILQQVDLRSKFLHLVSLTGRLINDTKTYQAERNRGELVSSVQCYMRENPECTEEEALSHVYGIIDNALKELNWELANPASNAPLCVRRLLFNTARVMQLFYMYRDGFGISDKEMKDHVSRTLFDPVA

How the values were obtained:
[1] = in vitro assay of levopimaradiene synthase constructs expressed in wild-type S. cerevisiae JBY575; type: biochemical, Saccharomyces cerevisiae; conditions: wild-type S. cerevisiae JBY575, galactose 48 hours, lysate with GGDP
Description: Expression in S. cerevisiae JBY575, which represents wild-type yeast, was observed. JBY575 cells transformed with pRS426GAL inserted with the putative levopimaradiene synthase were grown in synthetic complete medium lacking uracil and supplemented with 2% glucose and 1.5% agar at 30° C. to saturation and induced with galactose for 48 hours. Cells were harvested, resuspended in lysis buffer, and mixed by vortexing over glass beads. The lysate was assayed with 60 μM GGDP in the presence and absence of 0.2% and 5% Triton X-100.
All in vitro reactions were extracted 3× with hexane and dried over MgSO4. The reaction was further extracted twice with diethyl ether and dried over MgSO4. Thereafter, the crude lysate was suspended in 100 mM Tris, pH 8.0 containing 2.9 units/mg apyrase (a dephosphorylating agent) and 10 units/μL calf intestinal alkaline phosphatase, incubated at 30° C. for 3 hours, and extracted with diethyl ether as noted above (Croteau and Cane, 1985). The crude reaction mixtures were eluted over SiO2, concentrated, and analyzed by GC and GC/MS.
Gas chromatography spectra were obtained on a Hewlett Packard 6890 Series GC System equipped with an Rtx-5 capillary column (Restek, 30 m×0.25 mm i.d., 0.10 μm df). The following separation conditions and temperature program were employed: injector port 250° C., FID 250° C., split ratio 39:1, helium flow 20 cm/s (0.6 mL/min), 150° C. hold 5 min, increase to 250° C. (5° C./min), hold 5 min. GC/MS spectra were obtained on a Hewlett-Packard 5890A instrument with a 30-m DB-5 ms column (J&W Scientific Inc., 0.25 mm i.d., 0.10 μm df). The following separation conditions and temperature program were employed: injector port 280° C., transfer lines: 280° C., helium flow at 30 cm/s (1 mL/min) with splitless injection at 150° C. hold 3 min, increase to 250° C. (5° C./min), hold 5 min. Mass spectra (m/z 50 to 500) were obtained on a VG ZAB-HF reverse-geometry double-focusing instrument at 70 eV with an electron-impact ion source (200° C.). Accelerating voltage was set to 8 kV and the resolution was 1000 (10% valley).
The skilled artisan recognizes that lysis and assay conditions should be optimized. Examples of parameters that can be adjusted to optimize conditions include altering buffer, pH, reductant, reductant concentration, metal cofactors, cofactor concentrations, glycerol concentrations, substrate concentrations, and assay temperatures. […] Maximum soluble protein production and diterpene yield were obtained with the following conditions. Cell cultures were induced with 1 mM IPTG at 20° C. with shaking for 6 hours and lysed by sonication in 30 mM HEPES, pH 7.2, 5 mM DTT, and 5% glycerol. The soluble fraction of the lysate (100 mg/1 mL) was incubated with 20 μM GGDP in 30 mM HEPES, pH 7.2, 5 mM DTT, 5% glycerol, 2 mM MgCl2, and 500 μM MnCl2 overnight at 32° C. Yeast expression was induced with galactose at 30° C. for 48 hours and the cells were lysed and assayed according to the conditions noted.

EHY18 yeast cells = assay: in vivo expression of GbLS constructs in yeast strain EHY18 that accumulates GGDP, GC quantitation of products; type: cell-based; conditions: for diterpene products on expression in EHY18: GC, GC/MS
Description: The yeast strain of the copending application employed was EHY18 (Hart, E., 2001) which was further transformed with multiple-copy yeast expression vectors comprising an isolated and purified nucleic acid sequence of GbLS or derivatives thereof, which are described herein under control of the GAL1 inducible promoter. Yeast cells were grown to saturation in 5 mL ScD-Leu-Ura at 30° C. Cells were harvested (1300×g, 2 min, 25° C.) and resuspended in 500 μL sterile Milli-Q H2O (2×). The washed cells were resuspended in 5 mL sterile Milli-Q H2O. An aliquot of the culture (5 μL) was added to a 25 mL Corex tube containing pre-prepared 2× resin and 5 mL ScG-Leu-Ura (4% galactose) and shaken at 30° C. for 6 days. Resin was collected by filtration through a Kontes chromatography column (1.7 cm diameter) and rinsed with dI H2O until eluent was clear. The resin was incubated in 2 mL ethanol for several minutes, eluted, and repeated 2×. The combined eluents were dissolved in approximately 3 mL dI H2O and extracted (3×) with 3 mL hexane. The combined extracts were concentrated under a stream of nitrogen. GC analysis (quantitation extrapolated from 0.2 mg/mL longifolene external standard) indicated the following product profile (obtained from triplicate measurement of three cultures): 0.61±0.20 mg/L levopimaradiene, 0.04±0.01 mg/L abietadiene, 0.15±0.05 mg/L abietatriene, 0.16±0.13 mg/L (+)-copalol, and 1.79±0.90 mg/L geranylgeraniol. GC/MS fragmentation confirmed the identity of each compound.
A large scale culture (1-L) was prepared by growing the yeast cells to saturation in 5 mL ScD-Leu-Ura at 30° C. Cells were harvested (1300×g, 2 min, 25° C.) and resuspended in 500 μL sterile Milli-Q H2O (2×). The washed cells were resuspended in 5 mL sterile Milli-Q H2O. An aliquot of the culture (1 mL) was added to a 2 L flask containing 1-L ScG-Leu-Ura (4% galactose) and 88.27 g resin in 120 mL Milli-Q H2O (pre-prepared). The resin was eluted with ethanol (3×100 mL with 20 min incubation periods), which was subsequently extracted (6×) with hexane. The combined extracts were dried over magnesium sulfate, filtered, and concentrated under reduced pressure. GC analysis (quantitation extrapolated from 0.2 mg/mL longifolene external standard) indicated the following product profile (obtained from triplicate measurement): 0.29±0.04 mg/L levopimaradiene, 0.04±0.02 mg/L abietadiene, 0.13±0.04 mg/L abietatriene, 0.11±0.02 mg/L (+)-copalol, and 0.56±0.03 mg/L geranylgeraniol. GC/MS analyses confirmed the production of the above noted diterpenes, which included hydrocarbons and an alcohol.
Further optimization studies employed the Ser61 construct. Factors influencing diterpene production included induction period and concentration of galactose and resin in the inducing medium.

[2] = EHY18, 6 days, 4% galactose, 0.70 g resin/5 mL culture medium, GC quantitation

Row | Molecule | diterpene product on yeast expression [1] | diterpene product on yeast expression ([1]; listed as full-length) | diterpene products on expression in EHY18 (EHY18 yeast cells) | diterpene production relative to wild-type synthase (EHY18 yeast cells; EHY18) | net yield of (+)-copalol (EHY18 yeast cells; [2]) | net yield of diterpene hydrocarbons (EHY18 yeast cells; [2])
1 | B1 | failed to produce observable levels of any diterpene product | failed to produce detectable levels of biosynthetic product | produced (+)-copalol, levopimaradiene, abietadiene, and abietatriene | – | – | –
2 | B2 | yielded levopimaradiene as the sole diterpene; also recorded: yielded levopimaradiene synthase activity | – | produced (+)-copalol, levopimaradiene, abietadiene, and abietatriene | approximately four | ~0.2 mg/L | ~0.8 mg/L
